Source: patent US20260167699A1 (Chugai, published 2026)
Substitutions are numbered along the chain they refer to. Blank lines part the entries; values can stand above or below the binder they belong to.

What was measured:
Assay in all cases: SPR, vs GpH7-A5/GpH7-B3/GpL16-k0 =100
[1] = molecular target: T1, FcγRIIIa extracellular domain, His-tagged (human, UniProt P08637 17-208)
T1 construct: extracellular domain; also called 3a

[2] = molecular target: T2, FcγRIIa(H) extracellular domain, His-tagged (human, UniProt P12318 34-217)
T2 construct: extracellular domain; also called 2aH
T2 sequence: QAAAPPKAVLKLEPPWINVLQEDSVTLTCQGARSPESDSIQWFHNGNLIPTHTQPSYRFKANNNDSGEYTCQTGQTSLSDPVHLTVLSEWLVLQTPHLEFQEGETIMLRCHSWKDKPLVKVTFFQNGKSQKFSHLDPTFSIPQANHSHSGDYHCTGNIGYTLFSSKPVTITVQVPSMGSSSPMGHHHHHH

[3] = molecular target: T3, FcγRIIb extracellular domain, His-tagged (human, UniProt P31994 43-217)
T3 construct: extracellular domain; also called 2b
T3 sequence: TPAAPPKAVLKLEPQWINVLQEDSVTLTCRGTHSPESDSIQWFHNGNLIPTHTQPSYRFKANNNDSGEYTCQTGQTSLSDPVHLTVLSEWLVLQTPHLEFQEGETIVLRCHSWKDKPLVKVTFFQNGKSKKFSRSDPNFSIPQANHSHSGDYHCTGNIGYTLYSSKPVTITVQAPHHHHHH

[4] = molecular target: T4, FcγRIa extracellular domain, His-tagged (human, UniProt P12314 16-292)
T4 construct: extracellular domain; also called 1a

[5] = molecular target: T5, FcγRIIa(R) extracellular domain, His-tagged (human, UniProt P12318 34-217)
T5 construct: extracellular domain; also called 2aR
T5 sequence: T2 sequence with H134R

T4 sequence (P12314 other isoform, or with tags, fused parts or gaps): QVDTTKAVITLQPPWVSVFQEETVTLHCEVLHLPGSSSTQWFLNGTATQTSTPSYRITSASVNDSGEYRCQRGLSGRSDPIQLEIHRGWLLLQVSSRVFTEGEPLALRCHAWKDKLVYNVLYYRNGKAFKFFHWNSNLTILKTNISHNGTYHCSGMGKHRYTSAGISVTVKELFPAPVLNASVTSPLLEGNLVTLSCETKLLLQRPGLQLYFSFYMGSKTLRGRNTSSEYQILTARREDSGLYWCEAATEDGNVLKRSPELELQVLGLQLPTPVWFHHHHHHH
T1 sequence (P08637 other isoform, or with tags, fused parts or gaps): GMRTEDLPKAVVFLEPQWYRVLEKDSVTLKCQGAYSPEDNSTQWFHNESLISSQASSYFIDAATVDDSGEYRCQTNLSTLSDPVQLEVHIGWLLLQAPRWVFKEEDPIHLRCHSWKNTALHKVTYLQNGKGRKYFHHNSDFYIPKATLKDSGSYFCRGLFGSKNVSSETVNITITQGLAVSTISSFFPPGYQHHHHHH

He/Con 3a [1]: 100 % of control
He/Con 2aH [2]: 84.7 % of control
He/Con 2b [3]: 224 % of control
He/Con 1a [4]: 99 % of control
He/Con 2aR [5]: 140 % of control
B1: GpH7-A5/GpH7-B3 variant P238_09D/GpL16-k0 (antibody, human IgG1, kappa)
heavy 1: not shown
heavy 2: not shown
light: DIVMTQSPLSLPVTPGEPASISCQASESLVHSNRNTYLHWYLQKPGQSPQLLIYKVSNRFSGVPDRFSGSGSGTDFTLKISRVEAEDVGVYYCSQNTHVPPTFGQGTKVEIERTVAAPSVFIFPPSDEQLKSGTASVVCLLNNFYPREAKVQWKVDNALQSGNSQESVTEQDSKDSTYSLSSTLTLSKADYEKHKVYACEVTHQGLSSPVTKSFNRGEC

He/Con 3a [1]: 92.8 % of control
He/Con 2aH [2]: 99.5 % of control
He/Con 2b [3]: 100 % of control
He/Con 1a [4]: 103 % of control
He/Con 2aR [5]: 102 % of control
B2: GpH7-A5/GpH7-B3 variant L235_07I/GpL16-k0 (antibody, human IgG1, kappa)
heavy 1: not shown
heavy 2: not shown
light: B1 light

He/Con 3a [1]: 67.2 % of control
He/Con 2aH [2]: 73.5 % of control
He/Con 2b [3]: 55 % of control
He/Con 1a [4]: 93.5 % of control
He/Con 2aR [5]: 75.9 % of control
B3: GpH7-A5/GpH7-B3 variant L235_13S/GpL16-k0 (antibody, human IgG1, kappa)
heavy 1: not shown
heavy 2: not shown
light: B1 light

He/Con 3a [1]: 85.6 % of control
He/Con 2aH [2]: 80 % of control
He/Con 2b [3]: 90.8 % of control
He/Con 1a [4]: 96.9 % of control
He/Con 2aR [5]: 98.7 % of control
B4: GpH7-A5/GpH7-B3 variant L235_10E/GpL16-k0 (antibody, human IgG1, kappa)
heavy 1: not shown
heavy 2: not shown
light: B1 light

He/Con 3a [1]: 85.1 % of control
He/Con 2aH [2]: 104 % of control
He/Con 2b [3]: 83.2 % of control
He/Con 1a [4]: 103 % of control
He/Con 2aR [5]: 104 % of control
B5: GpH7-A5/GpH7-B3 variant L234_05P/GpL16-k0 (antibody, human IgG1, kappa)
heavy 1: not shown
heavy 2: not shown
light: B1 light

He/Con 3a [1]: 77.1 % of control
He/Con 2aH [2]: 88.1 % of control
He/Con 2b [3]: 68.9 % of control
He/Con 1a [4]: 98.8 % of control
He/Con 2aR [5]: 87.2 % of control
B6: GpH7-A5/GpH7-B3 variant L234_19Q/GpL16-k0 (antibody, human IgG1, kappa)
heavy 1: not shown
heavy 2: not shown
light: B1 light

He/Con 3a [1]: 72 % of control
He/Con 2aH [2]: 77.6 % of control
He/Con 2b [3]: 72 % of control
He/Con 1a [4]: 95.2 % of control
He/Con 2aR [5]: 86.6 % of control
B7: GpH7-A5/GpH7-B3 variant L235_02A/GpL16-k0 (antibody, human IgG1, kappa)
heavy 1: not shown
heavy 2: not shown
light: B1 light

He/Con 3a [1]: 94.6 % of control
He/Con 2aH [2]: 94.9 % of control
He/Con 2b [3]: 75.8 % of control
He/Con 1a [4]: 97.8 % of control
He/Con 2aR [5]: 83.4 % of control
B8: GpH7-A5/GpH7-B3 variant L235_03V/GpL16-k0 (antibody, human IgG1, kappa)
heavy 1: not shown
heavy 2: not shown
light: B1 light

He/Con 3a [1]: 77.8 % of control
He/Con 2aH [2]: 135 % of control
He/Con 2b [3]: 170 % of control
He/Con 1a [4]: 100 % of control
He/Con 2aR [5]: 150 % of control
B9: GpH7-A5/GpH7-B3 variant L235_15Y/GpL16-k0 (antibody, human IgG1, kappa)
heavy 1: not shown
heavy 2: not shown
light: B1 light

He/Con 3a [1]: 111 % of control
He/Con 2aH [2]: 98.2 % of control
He/Con 2b [3]: 134 % of control
He/Con 1a [4]: 104 % of control
He/Con 2aR [5]: 130 % of control
B10: GpH7-A5/GpH7-B3 variant L234_10E/GpL16-k0 (antibody, human IgG1, kappa)
heavy 1: not shown
heavy 2: not shown
light: B1 light

He/Con 3a [1]: 126 % of control
He/Con 2aH [2]: 134 % of control
He/Con 2b [3]: 110 % of control
He/Con 1a [4]: 103 % of control
He/Con 2aR [5]: 113 % of control
B11: GpH7-A5/GpH7-B3 variant L234_15Y/GpL16-k0 (antibody, human IgG1, kappa)
heavy 1: not shown
heavy 2: not shown
light: B1 light

He/Con 3a [1]: 69.8 % of control
He/Con 2aH [2]: 86.8 % of control
He/Con 2b [3]: 71.4 % of control
He/Con 1a [4]: 102 % of control
He/Con 2aR [5]: 90 % of control
B12: GpH7-A5/GpH7-B3 variant L234_14T/GpL16-k0 (antibody, human IgG1, kappa)
heavy 1: not shown
heavy 2: not shown
light: B1 light

He/Con 3a [1]: 88.2 % of control
He/Con 2aH [2]: 100 % of control
He/Con 2b [3]: 92 % of control
He/Con 1a [4]: 97.3 % of control
He/Con 2aR [5]: 98 % of control
B13: GpH7-A5/GpH7-B3 variant L234_18N/GpL16-k0 (antibody, human IgG1, kappa)
heavy 1: not shown
heavy 2: not shown
light: B1 light

He/Con 3a [1]: 114 % of control
He/Con 2aH [2]: 133 % of control
He/Con 2b [3]: 114 % of control
He/Con 1a [4]: 104 % of control
He/Con 2aR [5]: 121 % of control
B14: GpH7-A5/GpH7-B3 variant L234_04F/GpL16-k0 (antibody, human IgG1, kappa)
heavy 1: not shown
heavy 2: not shown
light: B1 light

He/Con 3a [1]: 82.9 % of control
He/Con 2aH [2]: 96.4 % of control
He/Con 2b [3]: 89.6 % of control
He/Con 1a [4]: 107 % of control
He/Con 2aR [5]: 109 % of control
B15: GpH7-A5/GpH7-B3 variant L234_06M/GpL16-k0 (antibody, human IgG1, kappa)
heavy 1: not shown
heavy 2: not shown
light: B1 light

He/Con 3a [1]: 99.5 % of control
He/Con 2aH [2]: 101 % of control
He/Con 2b [3]: 92.3 % of control
He/Con 1a [4]: 106 % of control
He/Con 2aR [5]: 110 % of control
B16: GpH7-A5/GpH7-B3 variant L234_07I/GpL16-k0 (antibody, human IgG1, kappa)
heavy 1: not shown
heavy 2: not shown
light: B1 light
